Data: article PMC4083444 (Nature Communications, 2014)
Numbering of substitutions follows the chain as printed. In names and notes the source's numbering stands.

B1: TmCdsA S200C/S223C double-cysteine mutant (enzyme, Thermotoga maritima, UniProt Q9X1B7 1-270, looked up)
chain: MDDLKTRVITASVVAPFVVLCFVSYESLIGLVSAILILAGYELITLEMKERDARFFYVILLALYPVLYGLVFEEPTQPLSILFITGVVFSLITDKDPSQVFKTVAAFSIALIYVTFFLSFFLPIYRDFGAANALLVLTSTWVFDSFAYFTGLKFGRTRISPRYSPRKSLEGVIGGFLGVVIYTFLYRLVVNDLLSVNVICFRTFLPFAATVAIMDTFGDIFECALKRHYGVKDSGKTLPGHGGMLDRIDGLLFVAPVSYIVFKILEGVVR
modifications: mercury labels (CH3HgCl) bound to the endogenous and engineered Cys residues in the crystal
B2: TmCdsA S200C/S258C double-cysteine mutant (enzyme, Thermotoga maritima, UniProt Q9X1B7 1-270, looked up)
chain: B1 chain with C223S, S258C

Molecular target: the molecule itself
Experiment: crystal structure

Protein | binding result
B1 | binds
B2 | binds
